US20100184701A1 (TREVENA, published 2010)
Non-standard residues stand in square brackets, D forms with d. No end group written: not given here. Sar = CNCC(=O)O

T1: human angiotensin 2 type 1 receptor (human, UniProt P30556 1-359)
T1 sequence (looked up): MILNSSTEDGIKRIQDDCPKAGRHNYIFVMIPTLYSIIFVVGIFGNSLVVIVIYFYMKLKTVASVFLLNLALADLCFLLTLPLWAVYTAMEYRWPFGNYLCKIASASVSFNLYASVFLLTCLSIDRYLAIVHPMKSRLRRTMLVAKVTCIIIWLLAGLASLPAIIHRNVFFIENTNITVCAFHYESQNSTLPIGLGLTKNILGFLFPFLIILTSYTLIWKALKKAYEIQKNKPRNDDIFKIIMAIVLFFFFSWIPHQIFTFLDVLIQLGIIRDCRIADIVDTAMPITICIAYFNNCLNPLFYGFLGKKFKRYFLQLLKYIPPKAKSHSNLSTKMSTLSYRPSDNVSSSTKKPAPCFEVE

T2: rat angiotensin 2 type 1 receptor (rat, UniProt P25095 1-359)
T2 sequence (looked up): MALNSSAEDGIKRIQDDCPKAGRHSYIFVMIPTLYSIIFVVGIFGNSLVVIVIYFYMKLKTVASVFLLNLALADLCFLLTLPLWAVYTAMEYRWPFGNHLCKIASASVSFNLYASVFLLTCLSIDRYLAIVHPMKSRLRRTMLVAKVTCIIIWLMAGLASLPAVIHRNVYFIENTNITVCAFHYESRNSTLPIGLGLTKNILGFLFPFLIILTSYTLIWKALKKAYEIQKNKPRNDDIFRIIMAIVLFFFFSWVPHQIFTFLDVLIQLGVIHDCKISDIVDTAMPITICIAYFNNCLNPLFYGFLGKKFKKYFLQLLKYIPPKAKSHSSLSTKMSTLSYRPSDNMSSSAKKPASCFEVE


How the values were obtained:
[1] = molecular target: T1, human angiotensin 2 type 1 receptor; experiment: cell-based or functional assay
[2] = molecular target: T2, rat angiotensin 2 type 1 receptor; experiment: cell-based or functional assay

Row | IP One EC50 (M) [1] [M] | b-arrestin2 Max (%) [1] [%] | IP One Max (%) [2] [%] | b-arrestin2 EC50 [2] [nM] | b-arrestin2 Max (%) [2] [%] | b-arrestin2 EC50 [1] [nM] | IP One EC50 (M) [2] [M] | IP One EC50 [2] [nM] | IP One EC50 [1] [nM] | IP One Max (%) [1] [%] | Binder
1 | > 1e-05 | 62.3 | 14.7 | 1900 | 60.7 | – | – | – | – | – | FVYIHPFVYIHPFVYIHP (cyclic, as printed: Cyclo(...)) [SEQ ID NO: 37]
2 | > 1e-05 | 80.5 | – | 2100 | 72.2 | 4800 | > 1e-05 | – | – | – | ARVYIHPA (NM-D-Ala (N-methyl-D-alanine) at 1) [SEQ ID NO: 47]
3 | > 1e-05 | 20.2 | – | 110 | 5.8 | 330 | > 1e-05 | – | – | – | XRVYIHP (Sar (sarcosine) at 1; D-Pro at 7; C-terminal amide (NH2)) [SEQ ID NO: 51]
4 | > 1e-05 | 43.1 | 20.8 | 2500 | 66.4 | 680 | – | – | – | – | VYIHPF (cyclic, as printed: Cyclo(...)) [SEQ ID NO: 38]
5 | > 1e-05 | – | 14.6 | – | – | – | – | 8.2 | – | – | ARVYIHPA (NMAla (N-methyl-L-alanine) at 1; D-Ala at 8) [SEQ ID NO: 44]
6 | > 1e-05 | 53.3 | 10.2 | 27 | 91.7 | 30 | – | 26 | – | – | [Sar]RVYRHP-NH2 (N-terminus assumed; SMILES CNCC(=O)N[C@@H](CCCNC(=N)N)C(=O)N[C@H](C(=O)N[C@@H](Cc1ccc(O)cc1)C(=O)N[C@@H](CCCNC(=N)N)C(=O)N[C@@H](Cc1c[nH]cn1)C(=O)N1CCC[C@H]1C(N)=O)C(C)C) [SEQ ID NO: 45]
7 | – | 57.9 | 14.1 | – | 77 | – | – | – | – | – | DRVYIHPA [SEQ ID NO: 25]
8 | > 1e-05 | 30.1 | – | 660 | 53.1 | 1600 | > 1e-05 | – | – | – | [Sar]RVYFHP-NH2 (N-terminus assumed; SMILES CNCC(=O)N[C@@H](CCCNC(=N)N)C(=O)N[C@H](C(=O)N[C@@H](Cc1ccc(O)cc1)C(=O)N[C@@H](Cc1ccccc1)C(=O)N[C@@H](Cc1c[nH]cn1)C(=O)N1CCC[C@H]1C(N)=O)C(C)C) [SEQ ID NO: 41]
9 | > 1e-05 | 53.2 | – | 31 | 87.9 | 95 | > 1e-05 | – | – | – | [Sar]RVYEHP-NH2 (N-terminus assumed; SMILES CNCC(=O)N[C@@H](CCCNC(=N)N)C(=O)N[C@H](C(=O)N[C@@H](Cc1ccc(O)cc1)C(=O)N[C@@H](CCC(=O)O)C(=O)N[C@@H](Cc1c[nH]cn1)C(=O)N1CCC[C@H]1C(N)=O)C(C)C) [SEQ ID NO: 40]
10 | > 1e-05 | 39.5 | 19.2 | 1900 | 32.8 | 1200 | – | 100 | – | – | RVYIHPRVYIHPRVYIHP (cyclic, as printed: Cyclo(...)) [SEQ ID NO: 36]

More lines, now with the values behind:

Row | Binder | IP One EC50 (M) [1] [M] | b-arrestin2 Max (%) [1] [%] | IP One Max (%) [2] [%] | b-arrestin2 EC50 [2] [nM] | b-arrestin2 Max (%) [2] [%] | b-arrestin2 EC50 [1] [nM] | IP One EC50 (M) [2] [M] | IP One EC50 [2] [nM] | IP One EC50 [1] [nM] | IP One Max (%) [1] [%]
11 | ARVYIHPA (NMAla (N-methyl-L-alanine) at 1) [SEQ ID NO: 34] | > 1e-05 | 53 | – | 32 | 81.7 | 25 | > 1e-05 | – | – | –
12 | [Sar]KVYIHP[dA]-OH (N-terminus assumed; SMILES CC[C@H](C)[C@H](NC(=O)[C@H](Cc1ccc(O)cc1)NC(=O)[C@@H](NC(=O)[C@H](CCCCN)NC(=O)CNC)C(C)C)C(=O)N[C@@H](Cc1c[nH]cn1)C(=O)N1CCC[C@H]1C(=O)N[C@H](C)C(=O)O) [SEQ ID NO: 49] | > 1e-05 | 72.7 | – | 630 | 52.9 | 1000 | > 1e-05 | – | – | –
13 | [Sar]RVYHHP-NH2 (N-terminus assumed; SMILES CNCC(=O)N[C@@H](CCCNC(=N)N)C(=O)N[C@H](C(=O)N[C@@H](Cc1ccc(O)cc1)C(=O)N[C@@H](Cc1c[nH]cn1)C(=O)N[C@@H](Cc1c[nH]cn1)C(=O)N1CCC[C@H]1C(N)=O)C(C)C) [SEQ ID NO: 42] | > 1e-05 | 46.4 | – | 270 | 74.9 | 630 | > 1e-05 | – | – | –
14 | GRVYIHPA (Me2G (N,N-dimethylglycine) at 1) [SEQ ID NO: 32] | – | 55.6 | 6.8 | – | 80.2 | – | – | – | – | –
15 | GRVYVHPA (Me2G (N,N-dimethylglycine) at 1) [SEQ ID NO: 31] | – | 58.1 | 6.2 | – | 75.9 | 100 | – | 13 | – | –
16 | XRVYYHP (Sar (sarcosine) at 1) [SEQ ID NO: 52] | – | 45.9 | 8 | 440 | 83.8 | 1400 | – | 300 | – | –
17 | XRVFIHPA (Sar (sarcosine) at 1; D-Ala at 8) [SEQ ID NO: 48] | > 1e-05 | 48.1 | 13.9 | – | 42.1 | 1800 | – | – | – | –
18 | XRVYVHP (Sar (sarcosine) at 1) [SEQ ID NO: 54] | > 1e-05 | 58.6 | – | 17 | 83 | 42 | > 1e-05 | – | – | –
19 | ARVYVHPA (NMAla (N-methyl-L-alanine) at 1) [SEQ ID NO: 33] | > 1e-05 | 54.9 | – | 31 | 86.9 | – | > 1e-05 | – | – | –
20 | [Sar]RVYKHP-NH2 (N-terminus assumed; SMILES CNCC(=O)N[C@@H](CCCNC(=N)N)C(=O)N[C@H](C(=O)N[C@@H](Cc1ccc(O)cc1)C(=O)N[C@@H](CCCCN)C(=O)N[C@@H](Cc1c[nH]cn1)C(=O)N1CCC[C@H]1C(N)=O)C(C)C) [SEQ ID NO: 43] | > 1e-05 | 42.7 | 17.9 | 910 | 64.8 | 2100 | – | 260 | – | –
21 | [Sar]RVYVH-NH2 (N-terminus assumed; SMILES CNCC(=O)N[C@@H](CCCNC(=N)N)C(=O)N[C@H](C(=O)N[C@@H](Cc1ccc(O)cc1)C(=O)N[C@H](C(=O)N[C@@H](Cc1c[nH]cn1)C(N)=O)C(C)C)C(C)C) [SEQ ID NO: 55] | – | 92.7 | 98.8 | 42 | 95.6 | 220 | – | 6.8 | 96 | 97.6
22 | ARVYIHPA (NMAla (N-methyl-L-alanine) at 1; D-Ala at 8) [SEQ ID NO: 46] | > 1e-05 | – | – | 63 | – | – | > 1e-05 | – | – | –
23 | [Sar]RVYIKP[dA]-OH (N-terminus assumed; SMILES CC[C@H](C)[C@H](NC(=O)[C@H](Cc1ccc(O)cc1)NC(=O)[C@@H](NC(=O)[C@H](CCCNC(=N)N)NC(=O)CNC)C(C)C)C(=O)N[C@@H](CCCCN)C(=O)N1CCC[C@H]1C(=O)N[C@H](C)C(=O)O) [SEQ ID NO: 50] | > 1e-05 | 56.8 | – | 270 | 85.6 | 680 | > 1e-05 | – | – | –
24 | [Sar]RVY[dA]HP-NH2 (N-terminus assumed; SMILES CNCC(=O)N[C@@H](CCCNC(=N)N)C(=O)N[C@H](C(=O)N[C@@H](Cc1ccc(O)cc1)C(=O)N[C@H](C)C(=O)N[C@@H](Cc1c[nH]cn1)C(=O)N1CCC[C@H]1C(N)=O)C(C)C) [SEQ ID NO: 53] | > 1e-05 | 33.6 | – | 420 | 12.2 | 1600 | > 1e-05 | – | – | –
25 | DRVYIHPG-OH [SEQ ID NO: 56] | – | 104 | 98.4 | 160 | 98.5 | 550 | – | 20 | 660 | 96.5
